# Results: the supplement of paper PMC9112550, “Optimization of the antimicrobial peptide Bac7 by deep mutational scanning” (BMC Biology, 2022)
# Tested on: Escherichia coli TOP10
# Experiment: shrunken log2 fold change of peptide-encoding DNA abundance (4.5 h post-induction vs induction); higher = less antimicrobial activity (less host growth inhibition)
# Settings: time post-induction: 4.5 h; library: site-saturation at positions 5, 18, 19, 20
# 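Note: peptides expressed intracellularly from a pBAD plasmid library in pooled LB shake-flask culture, induced with 0.3% L-arabinose, DNA abundance read by NGS, three biological replicates, DESeq2 with apeglm shrinkage.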
row,Sequence,shrunken log2 fold change
1,RRIRKRPPRLPRPRPRPRWPPRP,0.528
2,RRIRHRPPRLPRPRPRPCAAPRP,-0.195
3,RRIRTRPPRLPRPRPRPACRPRP,0.206
4,RRIRIRPPRLPRPRPRPDSYPRP,0.072
5,RRIRRRPPRLPRPRPRPQNVPRP,0.0718
6,RRIRMRPPRLPRPRPRPNTPPRP,0.188
7,RRIRHRPPRLPRPRPRPGKSPRP,-0.0128
8,RRIRARPPRLPRPRPRPTVQPRP,0.549
9,RRIRFRPPRLPRPRPRPMWAPRP,0.0936
10,RRIRIRPPRLPRPRPRPLGVPRP,-0.0767
11,RRIRKRPPRLPRPRPRPMFEPRP,0.312
12,RRIRSRPPRLPRPRPRPGCRPRP,0.293
13,RRIRRRPPRLPRPRPRPYWSPRP,-0.353
14,RRIRVRPPRLPRPRPRPRGLPRP,0.307
15,RRIRTRPPRLPRPRPRPQMAPRP,-0.177
16,RRIRWRPPRLPRPRPRPTLIPRP,0.0335
17,RRIRERPPRLPRPRPRPVHEPRP,-0.00127
18,RRIRNRPPRLPRPRPRPDYVPRP,-0.296
19,RRIRIRPPRLPRPRPRPFQSPRP,-0.469
20,RRIRLRPPRLPRPRPRPVWVPRP,-0.0407
21,RRIRIRPPRLPRPRPRPLLTPRP,-0.156
22,RRIRHRPPRLPRPRPRPAWCPRP,0.081
23,RRIRWRPPRLPRPRPRPTCFPRP,0.0863
24,RRIRGRPPRLPRPRPRPKNHPRP,0.179
25,RRIRIRPPRLPRPRPRPPGPPRP,0.575

row,Sequence,shrunken log2 fold change
1,RRIRMRPPRLPRPRPRPQMCPRP,-0.239
2,RRIRKRPPRLPRPRPRPAYGPRP,0.397
3,RRIRPRPPRLPRPRPRPVMWPRP,0.385
4,RRIRRRPPRLPRPRPRPVANPRP,0.207
5,RRIRERPPRLPRPRPRPNISPRP,-1.14
6,RRIRDRPPRLPRPRPRPLMEPRP,0.117
7,RRIRYRPPRLPRPRPRPVYGPRP,-0.0722
8,RRIRNRPPRLPRPRPRPGVRPRP,0.212
9,RRIRVRPPRLPRPRPRPAQQPRP,0.375
10,RRIRMRPPRLPRPRPRPMKRPRP,0.573
11,RRIRFRPPRLPRPRPRPAPMPRP,0.282
12,RRIRKRPPRLPRPRPRPAFCPRP,0.422
13,RRIRKRPPRLPRPRPRPETIPRP,0.0906
14,RRIRWRPPRLPRPRPRPVDGPRP,0.0816
15,RRIRSRPPRLPRPRPRPSSCPRP,-0.271
16,RRIRSRPPRLPRPRPRPSHAPRP,-0.449
17,RRIRGRPPRLPRPRPRPTVYPRP,0.185
18,RRIRARPPRLPRPRPRPEPDPRP,-0.0215
19,RRIRGRPPRLPRPRPRPYHFPRP,-0.041
20,RRIRFRPPRLPRPRPRPTASPRP,0.384
21,RRIRHRPPRLPRPRPRPTPSPRP,0.276
22,RRIRLRPPRLPRPRPRPPCWPRP,0.16
23,RRIRCRPPRLPRPRPRPDQDPRP,0.0433
24,RRIRLRPPRLPRPRPRPCKPPRP,-0.1
25,RRIRMRPPRLPRPRPRPSGSPRP,0.133

row,Sequence,shrunken log2 fold change
1,RRIRCRPPRLPRPRPRPLYDPRP,-0.312
2,RRIRGRPPRLPRPRPRPNPIPRP,0.0839
3,RRIRNRPPRLPRPRPRPGDFPRP,0.264
4,RRIRYRPPRLPRPRPRPIHWPRP,-0.182
5,RRIRMRPPRLPRPRPRPTCNPRP,-0.0778
6,RRIRSRPPRLPRPRPRPMAFPRP,-0.0285
7,RRIRPRPPRLPRPRPRPEDKPRP,0.163
8,RRIRCRPPRLPRPRPRPSGHPRP,-0.422
9,RRIRARPPRLPRPRPRPLGEPRP,0.896
10,RRIRLRPPRLPRPRPRPNCYPRP,-0.422
11,RRIRGRPPRLPRPRPRPMSAPRP,0.702
12,RRIRHRPPRLPRPRPRPMRAPRP,0.686
13,RRIRSRPPRLPRPRPRPDGYPRP,-0.164
14,RRIRRRPPRLPRPRPRPPIQPRP,0.16
15,RRIRARPPRLPRPRPRPFDWPRP,0.608
16,RRIRYRPPRLPRPRPRPFPVPRP,-0.149
17,RRIRIRPPRLPRPRPRPQAIPRP,0.0305
18,RRIRHRPPRLPRPRPRPLQHPRP,0.0675
19,RRIRLRPPRLPRPRPRPEHNPRP,-0.204
20,RRIRGRPPRLPRPRPRPDMGPRP,0.269
21,RRIRDRPPRLPRPRPRPTHPPRP,0.263
22,RRIRERPPRLPRPRPRPSINPRP,-0.798
23,RRIRGRPPRLPRPRPRPCYIPRP,0.0972
24,RRIRPRPPRLPRPRPRPATTPRP,0.0694
25,RRIRFRPPRLPRPRPRPFHHPRP,-0.976

row,Sequence,shrunken log2 fold change
1,RRIRMRPPRLPRPRPRPHISPRP,-0.0571
2,RRIRWRPPRLPRPRPRPNCKPRP,-0.0223
3,RRIRPRPPRLPRPRPRPSLCPRP,-0.0173
4,RRIRMRPPRLPRPRPRPAKRPRP,1.21
5,RRIRHRPPRLPRPRPRPTKPPRP,0.0121
6,RRIRERPPRLPRPRPRPMIKPRP,-1.07
7,RRIRARPPRLPRPRPRPLLDPRP,0.788
8,RRIRYRPPRLPRPRPRPRWTPRP,0.2
9,RRIRDRPPRLPRPRPRPSSTPRP,0.00883
10,RRIRDRPPRLPRPRPRPRRVPRP,0.427
11,RRIRTRPPRLPRPRPRPRQEPRP,0.0565
12,RRIRARPPRLPRPRPRPCYAPRP,-0.26
13,RRIRNRPPRLPRPRPRPGDKPRP,-0.105
14,RRIRYRPPRLPRPRPRPYPVPRP,0.011
15,RRIRIRPPRLPRPRPRPQGHPRP,-0.0464
16,RRIRDRPPRLPRPRPRPCFEPRP,0.708
17,RRIRKRPPRLPRPRPRPGNLPRP,0.0368
18,RRIRGRPPRLPRPRPRPWTWPRP,0.339
19,RRIRPRPPRLPRPRPRPAYTPRP,-0.116
20,RRIRGRPPRLPRPRPRPNMQPRP,0.492
21,RRIRPRPPRLPRPRPRPMVIPRP,-0.0869
22,RRIRFRPPRLPRPRPRPYFIPRP,-1.12
23,RRIRCRPPRLPRPRPRPHFHPRP,-0.712
24,RRIRRRPPRLPRPRPRPENTPRP,-0.0822
25,RRIRERPPRLPRPRPRPTTYPRP,-0.8

row,Sequence,shrunken log2 fold change
1,RRIRSRPPRLPRPRPRPEANPRP,0.542
2,RRIRMRPPRLPRPRPRPCDIPRP,-0.151
3,RRIRRRPPRLPRPRPRPHQSPRP,0.128
4,RRIRTRPPRLPRPRPRPPTYPRP,-0.149
5,RRIRYRPPRLPRPRPRPWDPPRP,-0.0966
6,RRIRRRPPRLPRPRPRPMTLPRP,-0.142
7,RRIRARPPRLPRPRPRPQMLPRP,1.97
8,RRIRFRPPRLPRPRPRPRKFPRP,0.171
9,RRIRHRPPRLPRPRPRPTLPPRP,-0.00384
10,RRIRHRPPRLPRPRPRPYGMPRP,-0.0262
11,RRIRNRPPRLPRPRPRPYNYPRP,-0.067
12,RRIRFRPPRLPRPRPRPVIHPRP,-0.182
13,RRIRNRPPRLPRPRPRPYPSPRP,0.0309
14,RRIRERPPRLPRPRPRPMQEPRP,0.216
15,RRIRHRPPRLPRPRPRPEMKPRP,-0.0143
16,RRIRRRPPRLPRPRPRPYTNPRP,-0.95
17,RRIRTRPPRLPRPRPRPPMQPRP,0.0806
18,RRIRLRPPRLPRPRPRPIGFPRP,0.0709
19,RRIRARPPRLPRPRPRPCRAPRP,0.261
20,RRIRRRPPRLPRPRPRPTGYPRP,0.246
21,RRIRGRPPRLPRPRPRPDWIPRP,0.243
22,RRIRMRPPRLPRPRPRPHPYPRP,0.168
23,RRIRHRPPRLPRPRPRPRDCPRP,-0.0851
24,RRIRLRPPRLPRPRPRPMFQPRP,-1.11
25,RRIRGRPPRLPRPRPRPHKPPRP,0.388

row,Sequence,shrunken log2 fold change
1,RRIRIRPPRLPRPRPRPKVYPRP,-0.394
2,RRIRTRPPRLPRPRPRPVIHPRP,0.0146
3,RRIRKRPPRLPRPRPRPPFRPRP,0.566
4,RRIRLRPPRLPRPRPRPFVLPRP,-0.513
5,RRIRGRPPRLPRPRPRPCVRPRP,0.079
6,RRIRQRPPRLPRPRPRPVFSPRP,-0.192
7,RRIRERPPRLPRPRPRPEHKPRP,-0.0265
8,RRIRPRPPRLPRPRPRPFRIPRP,0.000199
9,RRIRARPPRLPRPRPRPCMDPRP,0.0143
10,RRIRCRPPRLPRPRPRPVTFPRP,-0.294
11,RRIRGRPPRLPRPRPRPQIEPRP,0.462
12,RRIRRRPPRLPRPRPRPEEYPRP,-0.173
13,RRIRLRPPRLPRPRPRPLFQPRP,-0.322
14,RRIRMRPPRLPRPRPRPLESPRP,2.66
15,RRIRNRPPRLPRPRPRPRQRPRP,0.215
16,RRIRRRPPRLPRPRPRPDEAPRP,0.376
17,RRIRRRPPRLPRPRPRPNKVPRP,-0.213
18,RRIRNRPPRLPRPRPRPGKIPRP,-0.284
19,RRIRKRPPRLPRPRPRPVPEPRP,0.151
20,RRIRPRPPRLPRPRPRPFHKPRP,-0.453
21,RRIRGRPPRLPRPRPRPKQSPRP,0.887
22,RRIRLRPPRLPRPRPRPFMGPRP,-0.141
23,RRIRCRPPRLPRPRPRPACDPRP,0.389
24,RRIRHRPPRLPRPRPRPWASPRP,-0.0831
25,RRIRARPPRLPRPRPRPESIPRP,-0.0955
